{"source": "paper PMC10766771", "origin": "cited, not measured here", "test_system": "His154", "assay": "other (pH dependence of the redox potential, electrochemistry)", "details": "oxidized [2Fe-2S] cluster, isolated fragment"}
{"substance": "Rieske [2Fe-2S] iron-sulfur protein (cytochrome bc1-type), isolated soluble fragment (Thermus thermophilus)", "values": [{"measurement": "pKa", "result": 7.8}]}
